Tested on: MS2 coat protein
Assay: apparent KD of MS2 coat protein; designed switch direction (-1 OFF switch, 1 ON switch): 1; higher = weaker reporter binding
Outline: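 The reported apparent KD is a per-design median over clusters, from curve fits of normalised cluster fluorescence. Protein titrations used SNAP-549-labelled MS2 coat protein, doubled from 0.7 or 1.5 nM to 3 µM, in Tris-HCl pH 7.5 buffer with KCl, MgCl2, BSA, DTT, tRNA and Tween-20, with no input, 200 uM small-molecule ligand, or an oligonucleotide input. The RNA switches were transcribed on Illumina chips by stalled E. coli RNA polymerase.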

[1] = Eterna round: R95, input ligand: FMN 200 uM
[2] = Eterna round: R95, input ligand: microRNA oligo, concentration not stated
[3] = Eterna round: R95, input ligand: none
[4] = input ligand: microRNA oligo, concentration not stated

## GUAUCUACAGGUUGCGAUGCUCGUCUGAUACAUGAGGAUCACCCAUGUUAUAGCCCUGUGCUUGCGCAGGGCUGAUU [Sensor for hsa-mir-208a ( MOD of Tearor v.2 )] (puzzle: Sensor for hsa-mir-208a)
[1]
  apparent KD of MS2 coat protein: 136 nM
[2]
  apparent KD of MS2 coat protein: 33.4 nM
[3]
  apparent KD of MS2 coat protein: 116 nM

## GCGGAGAGGUAAGGAUAUUCAUGGCAUAGACAUGAGGAUCACCCAUGUAGGAGACGAAUUAGAAGGAAGAAGGUACCGGGACGC [AK SSNG2-V2-18.1] (Eterna round: R96, puzzle: Same State NG 2)
Input ligand: FMN 200 uM
  apparent KD of MS2 coat protein: 158 nM
[4]
  apparent KD of MS2 coat protein: 113 nM
Input ligand: none
  apparent KD of MS2 coat protein: 197 nM

## AAACAUGAGCGAGGAUAUGCAGAGGAUCACCCUGUAGAAGGCGCAUGUAAAACAACAUGAGGAUCACCCAUGUCAUGUACAUGA (Eterna round: R96, puzzle: Same State NG 1)
Input ligand: FMN 200 uM
  apparent KD of MS2 coat protein: 19.4 nM
[4]
  apparent KD of MS2 coat protein: 15.3 nM
Input ligand: none
  apparent KD of MS2 coat protein: 20.2 nM

## GAGUGGCAGUAAGGAUAUAUAAUGAUAAUCACAGUAGAAGGUACUGACAUGAGGAUCACCCAUGUAGGACUAAACCAGAGAGAG [Parity 43 - Jieux - Same State NG 1] (Eterna round: R96, puzzle: Same State NG 1)
Input ligand: FMN 200 uM
  apparent KD of MS2 coat protein: 33.8 nM
[4]
  apparent KD of MS2 coat protein: 20.2 nM
Input ligand: none
  apparent KD of MS2 coat protein: 20.1 nM

## CGGGUGAUCGUAGGAUAUCUAGGAUAUGAACGAGGAUCACCCGAGCAGCAUCAGCGCAUCAGAGGAGAGAAGGACGAUGAUGCG [pwkr ssNG2 2F5 2FMN.19] (Eterna round: R96, puzzle: Same State NG 2)
Input ligand: FMN 200 uM
  apparent KD of MS2 coat protein: 20.5 nM
[4]
  apparent KD of MS2 coat protein: 21.7 nM
Input ligand: none
  apparent KD of MS2 coat protein: 34 nM

## GGACGUCAUCUCAAUAAUUAAACAUGAGGAUCACCCAUGUCACAGGAUAUGGAUCCUAAUUGGAUCCAGAAGGGUGUGACGUCC [Fiskers NG3ss - 40] (Eterna round: R96, puzzle: Same State NG 3)
Input ligand: FMN 200 uM
  apparent KD of MS2 coat protein: 54.3 nM
[4]
  apparent KD of MS2 coat protein: 56 nM
Input ligand: none
  apparent KD of MS2 coat protein: 66.1 nM

## GAGGAACAGGCCAACAUGAGGAUCACCCAUGUCCUCGCAUUUCAGGAUAUCUGGAAGAAGAAAAAAGAGAAGGGAAGGUGAAGC [AK SSNG3-V2-34.3] (Eterna round: R96, puzzle: Same State NG 3)
Input ligand: FMN 200 uM
  apparent KD of MS2 coat protein: 198 nM
[4]
  apparent KD of MS2 coat protein: 140 nM
Input ligand: none
  apparent KD of MS2 coat protein: 165 nM

## AGUCCAGCCAGAGCUGGACAAAAGCAUGUACAUGAGGAUCACCCAUGUUCAUGUACAAGCUUUUUGCAAGUCAAAAU [Mat - hsa-mir-208a - Mod of JL - 83] (Eterna round: R96, puzzle: Sensor for hsa-mir-208a)
Input ligand: FMN 200 uM
  apparent KD of MS2 coat protein: 578 nM
[4]
  apparent KD of MS2 coat protein: 16 nM
Input ligand: none
  apparent KD of MS2 coat protein: 592 nM

## AGCUAUCGAAAACGAUAGCAAAAGCAUGUACAUGAGGAUCACCCAUGUCAUGUACAAGCUUUUUGUUCGUCUUAAAA [Zipper 23 - 14] (puzzle: Sensor for hsa-mir-208a)
[1]
  apparent KD of MS2 coat protein: 430 nM
[2]
  apparent KD of MS2 coat protein: 11.7 nM
[3]
  apparent KD of MS2 coat protein: 334 nM

## GCUCGAUGUGCUGUUUACAUGAGGAUCACCCAUGUAGAUGCGGAGGAUAUCUACGUGCUUUAUGUAGAGAAGGCCGUAUCGAGC [SameState NG3 #82] (Eterna round: R96, puzzle: Same State NG 3)
Input ligand: FMN 200 uM
  apparent KD of MS2 coat protein: 15 nM
[4]
  apparent KD of MS2 coat protein: 25.4 nM
Input ligand: none
  apparent KD of MS2 coat protein: 35.1 nM

## UUAACAUGAGGAUCACCCAUGUAUGCGUUGCUUGCAUUUUGACAGGAUAUUGUUUAUCCAUAUAGCAAGAAGGGUCGUUAGUCU [JR_SSNG3_Sub010] (Eterna round: R96, puzzle: Same State NG 3)
Input ligand: FMN 200 uM
  apparent KD of MS2 coat protein: 80.9 nM
[4]
  apparent KD of MS2 coat protein: 63.1 nM
Input ligand: none
  apparent KD of MS2 coat protein: 79.1 nM

## GUGGUCAGACAUGAGGAUCACCCAUGUGGAAUAAAUAACGGUGAGGAUAUUGAAUAUAGGAUAUACGAGAAGGCAUGAUUGGUG (Eterna round: R96, puzzle: Same State NG 3)
Input ligand: FMN 200 uM
  apparent KD of MS2 coat protein: 208 nM
[4]
  apparent KD of MS2 coat protein: 114 nM
Input ligand: none
  apparent KD of MS2 coat protein: 123 nM

## AUGAAGAAUUAAGGAUAUUGAUUACAUAUGUUUAACAUGAGGAUCACCCAUGUGGGUUGCGGUAUCGAGAAGGUAAAUUAAUAG [Mat - same State NG 2 - JL mod - D84] (Eterna round: R96, puzzle: Same State NG 2)
Input ligand: FMN 200 uM
  apparent KD of MS2 coat protein: 187 nM
[4]
  apparent KD of MS2 coat protein: 129 nM
Input ligand: none
  apparent KD of MS2 coat protein: 196 nM

## AUAAGUUCGAUGCUCGUCUCUCCGUACAAACAUGAGGAUCACCCAUGUGGUCAGGAAGUAGCCCGACCAGUAUGGCC [Leedqu] (puzzle: Sensor for hsa-mir-208a)
[1]
  apparent KD of MS2 coat protein: 29 nM
[2]
  apparent KD of MS2 coat protein: 24.6 nM
[3]
  apparent KD of MS2 coat protein: 34 nM

## CCCUCACAUGAGGAUCACCCAUGUCCUAGCAGGUCAGGAUAUAGCCCGCAUCCGCUGCGGCUAGAAGGGACAGCUG [JR_SS001_Sub610] (Eterna round: R96, puzzle: Same State 1)
Input ligand: FMN 200 uM
  apparent KD of MS2 coat protein: 148 nM
[4]
  apparent KD of MS2 coat protein: 135 nM
Input ligand: none
  apparent KD of MS2 coat protein: 176 nM

## AGAGAACAUGAGGAUCACCCAUGUAGGAUGGGCAUAGGAUAUAGAAGGAUGAAGGAGAAACUAGAAGGAUGAUGGA [JR_SS1_Sub076] (puzzle: Same State 1)
[1]
  apparent KD of MS2 coat protein: 107 nM
[2]
  apparent KD of MS2 coat protein: 145 nM
[3]
  apparent KD of MS2 coat protein: 235 nM

## AUUAUUAAUGCAGGAUAUGAUUAACAUGAGGAUCACCCAUGUGGUGUUGUGAGUAAGGAGAGUGAUCAGAAGGGCAUUUUUUUU [JMF's solution 6] (Eterna round: R96, puzzle: Same State NG 2)
[4]
  apparent KD of MS2 coat protein: 463 nM

## UCUAGACAUGAGGAUCACCCAUGUCAAUAUGACACAGGAUAUCGGUACUCAUAGAGUACGCGAGAAGGGUGACUUC [Same State 1 - Mod of Vinnie Gere v.4] (puzzle: Same State 1)
[1]
  apparent KD of MS2 coat protein: 137 nM
[2]
  apparent KD of MS2 coat protein: 45.5 nM
[3]
  apparent KD of MS2 coat protein: 52.6 nM

## GGAGCCGGCACUGAGGAUAUUCAUAUUAAAACAUGAGGAUCACCCAUGUAGGCCAGAAGGCCUUGGGAGAAGGCAGGUCGGCUCG [salish99_ss2_r3_075] (Eterna round: R96, puzzle: Same State 2)
Input ligand: FMN 200 uM
  apparent KD of MS2 coat protein: 20 nM
[4]
  apparent KD of MS2 coat protein: 188 nM
Input ligand: none
  apparent KD of MS2 coat protein: 283 nM

## GUAGCAUACCGAGGAUAUUCAAAUUAACAUGAGGAUCACCCAUGUAGGCCACAUUAGUGGCCUUGGGAGAAGGCGGAAUGCUAC [Xeonanis - 20 Mod39] (Eterna round: R96, puzzle: Same State NG 2)
Input ligand: FMN 200 uM
  apparent KD of MS2 coat protein: 13.3 nM
[4]
  apparent KD of MS2 coat protein: 43.1 nM
Input ligand: none
  apparent KD of MS2 coat protein: 60.7 nM

## UUUGCAUGACGAGGAUAUCAUUUAUUUCUUGAUUGAGAAGGCGUUUUUUUUAUUACCUAACAUGAGGAUCACCCAUGUGACAGU [JR_SSNG1_Sub045] (Eterna round: R96, puzzle: Same State NG 1)
Input ligand: FMN 200 uM
  apparent KD of MS2 coat protein: 14.8 nM
[4]
  apparent KD of MS2 coat protein: 19.6 nM
Input ligand: none
  apparent KD of MS2 coat protein: 18.4 nM

## GUGAAGAAUUAAGGAUAUCGAGUCAAGAUGUUAAACAUGAGGAUCACCCAUGUGGGUUGCGGUAUCGAGAAGGUAAAUUACGGG [salish99_SSNG2_r04_503] (Eterna round: R96, puzzle: Same State NG 2)
Input ligand: FMN 200 uM
  apparent KD of MS2 coat protein: 34.6 nM
[4]
  apparent KD of MS2 coat protein: 27.6 nM
Input ligand: none
  apparent KD of MS2 coat protein: 33.2 nM

## GGUCCAGCCUGAGCUGGACAAAAGCAUGUACAUGAGGAUCACCCAUGUCAUGUACAAGCUUUUUGCUCGUCUUAAAU [Mat - hsa-mir-208a - 84] (puzzle: Sensor for hsa-mir-208a)
[1]
  apparent KD of MS2 coat protein: 495 nM
[2]
  apparent KD of MS2 coat protein: 16.1 nM
[3]
  apparent KD of MS2 coat protein: 800 nM

## AUAAAACAUGAGGAUCACCCAUGUCAACAAAUUCGAGGAUAUGGGCAAAUAAAAUAAGAACCAGAAGGCGAAUAAU [salish99_ss1_r3_038] (puzzle: Same State 1)
[1]
  apparent KD of MS2 coat protein: 18.1 nM
[2]
  apparent KD of MS2 coat protein: 104 nM
[3]
  apparent KD of MS2 coat protein: 86.1 nM

## GAGCCAGUCCGAGGAUAUUCAUAAAUUAAAUACAUGAGGAUCACCCAUGUAGGCAGAGAGCCUUGGGAGAAGGCGGACUGGCUC [Xeonanisa>>3] (Eterna round: R96, puzzle: Same State NG 2)
Input ligand: FMN 200 uM
  apparent KD of MS2 coat protein: 10.9 nM
[4]
  apparent KD of MS2 coat protein: 25.5 nM
Input ligand: none
  apparent KD of MS2 coat protein: 37.3 nM

## GCCGCGUUUCGCGCCUACAUGAGGAUCACCCAUGUUUGUAGGCAGGAUAUCGUUUGCUUUGCAAGCGAGAAGGGCUGUUGUGGC [salish99_SSNG3_R04_015] (Eterna round: R96, puzzle: Same State NG 3)
Input ligand: FMN 200 uM
  apparent KD of MS2 coat protein: 44.3 nM
[4]
  apparent KD of MS2 coat protein: 39.2 nM
Input ligand: none
  apparent KD of MS2 coat protein: 50.7 nM

## UACUUGGUGGUAGGAUAUGUAGGAUAUGGCGAGAGCUAAGCUUGGAAGUCACUUCAGCCAGAAGGACAGAAGGACCAGUAUCUC [pwkr ssNG2 2FMN + F9.11] (Eterna round: R96, puzzle: Same State NG 2)
Input ligand: FMN 200 uM
  apparent KD of MS2 coat protein: 1450 nM
[4]
  apparent KD of MS2 coat protein: 11.5 nM
Input ligand: none
  apparent KD of MS2 coat protein: 81.6 nM

## CGGGUGGUUCUAGGAUAUCUAGGAUAUGGACGAGGAUUACCCGAGCAGCAUCAGCGCACCAGAGGAGAGAAGGAGAGUCAUGCG [pwkr ssNG2 2F5 2FMN.9] (Eterna round: R96, puzzle: Same State NG 2)
Input ligand: FMN 200 uM
  apparent KD of MS2 coat protein: 105 nM
[4]
  apparent KD of MS2 coat protein: 72.5 nM
Input ligand: none
  apparent KD of MS2 coat protein: 86.8 nM

## GGUACUAACACAGGAUAUGCUAUCCUUUGGGUAGCAGAAGGGUGGUACAUGAGGAUCACCCAUGUGGUGCCAGGGCGUGAGCCC [JL SSNG1 1.96] (Eterna round: R96, puzzle: Same State NG 1)
Input ligand: FMN 200 uM
  apparent KD of MS2 coat protein: 408 nM
[4]
  apparent KD of MS2 coat protein: 538 nM
Input ligand: none
  apparent KD of MS2 coat protein: 659 nM

## CGGGUAAUCGUAGGAUAUCUAGGAUAUGAACGAGGAUCACCCGAGCAGCAUCAGCGCAUCAGAGGAGAGAAGGACGAUGAUGCG [pwkr ssNG2 2F5 2FMN.18] (Eterna round: R96, puzzle: Same State NG 2)
Input ligand: FMN 200 uM
  apparent KD of MS2 coat protein: 164 nM
[4]
  apparent KD of MS2 coat protein: 199 nM
Input ligand: none
  apparent KD of MS2 coat protein: 470 nM
